Assays:
[1] = test system: cultured endothelial cells; conditions: cited from earlier work
[2] = test system: HUVECs; assay: Localization of endostatin into cells and nuclei (cytosol/nuclei extract, immunoprecipitation, Western blot); assay type: cell-based, human; conditions: 100 ug/ml recombinant endostatin, 30 minutes; FIG. 4
Procedure: 3 T-75 of HUVECs grown at regular growth condition (about 95% confluent) were treated with 100 ug/ml recombinant endostatin for 30 minutes and rinsed with warm 1XPBS and then trypsinized. The control cells from 3 T-75 were the HUVECs treated with the same concentration of endostatin for 1 second. The trypsinized cells were then washed with cold PBS twice. About 40 μl of cell pellet was obtained from all three T-75 flasks. The cytosol extract and nuclei extract was obtained using a nuclei extraction kit (Pierce Company, Rockford, Ill.). The rabbit polyclonal antibodies against human endostatin (Cytimmune Sciences, College Station, Md.) were used to immunoprecipite endostatin protein present in the extract. The immunoprecipited elution was analyzed on Western blot probed with either the same polyclonal antibodies or the mAb 96-2. […] (FIG. 4).

[3] = test system: tumor induced angiogenesis; conditions: systemic therapy; cited from earlier work
[4] = test system: Live HUVECs cells; assay: Staining of live endothelial cells with Alexa-labeled endostatin (fluorescence microscopy); assay type: cell-based, human; conditions: 8 ug/ml, 5, 15, 30 and 60 minutes; FIG. 6
Procedure: Live HUVECs cells were treated with 8 ug/mI Alexa-labeled endostatin for 5 minutes, 15 minutes, 30 minutes and 60 minutes, land washed with M-200 medium and fixed in 3.7% formaldehyde for 5 minutes and cold methanol for 5 minutes. Alexa-labeled endostatin can be visualized under the fluorescent microscope.

[5] = test system: HUVECs; assay: Staining of fixed endothelial cells with Alexa-labeled endostatin; assay type: cell-based, human; conditions: HUVECs grown at 5 ng/ml VEGF, 40 μg/μl, 30 mins, FIG. 7
Procedure: HUVECs grown at 5 ng/ml VEGF were fixed in 3.7% formaldehyde for 5 mins. and cold methanol for 5 mins. and then stained with […] Alexa-labeled endostatin for 30 mins.

Row | Molecule | inhibition of endothelial proliferation and angiogenesis [1] | localization into cell and nuclei [2] | suppression of tumor induced angiogenesis [3] | staining of live cells [4] | staining of fixed cells [5]
1 | endostatin: antiangiogenic fragment of a most C-terminal non-collagenous region of a collagen protein (SEQ ID NO: 1) (protein) HSHRDFQPVLHLVALNSPLSGGMRGIRGADFQCFQQARAVGLAGTFRAFLSSRLQDLYSIVRRADRAAVPIVNLKDELLFPSWEALFSGSEGPLKPGARIFSFDGKDVLRHPTWPQKSVWHGSDPNGRRLTESYCETWRTEAPSATGQASSLLGGRLLGQSAASCHHAYIVLCIENSFMTASK | potent and specific inhibitor | able to localize into HUVEC cell and nuclei | nearly complete suppression | – | –
2 | Alexa-labeled endostatin: endostatin labeled with Alexa dye, visualized under the fluorescent microscope (conjugate, UniProt P39060 1572-1754, looked up, Endostatin Alexa dye label, endostatin labeled with Alexa dye, visualized under the fluorescent microscope) Endostatin: HSHRDFQPVLHLVALNSPLSGGMRGIRGADFQCFQQARAVGLAGTFRAFLSSRLQDLYSIVRRADRAAVPIVNLKDELLFPSWEALFSGSEGPLKPGARIFSFDGKDVLRHPTWPQKSVWHGSDPNGRRLTESYCETWRTEAPSATGQASSLLGGRLLGQSAASCHHAYIVLCIENSFMTASK | – | – | – | stains the cytosol and nuclei even as early as at the 5 minute time point | stained not only the cytoskeleton network, but also stained the nuclei
